Measurements as given in patent publication US20150299252A1.
Where no end group is shown, it is not given here.

T1: lectin MAA from Maackia amurensis (Maackia amurensis), P0DKL3
T1 chain: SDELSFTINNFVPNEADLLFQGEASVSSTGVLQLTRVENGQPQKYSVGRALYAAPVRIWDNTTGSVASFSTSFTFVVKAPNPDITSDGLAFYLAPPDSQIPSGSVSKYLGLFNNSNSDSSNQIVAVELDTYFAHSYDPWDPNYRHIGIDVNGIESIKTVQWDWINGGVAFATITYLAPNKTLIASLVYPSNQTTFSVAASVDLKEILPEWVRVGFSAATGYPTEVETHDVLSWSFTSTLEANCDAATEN

B1: biotinylated SVH1C (quadravalent, C-terminal ε-biotinyl-lysine amide) (peptide)
peptide: NPSHPLSGGGGS
chain: KKKK
modifications: not fully specified (some residues, C-terminus); also: quadravalent: four peptide copies on lysine scaffold

Columns and labels:
[1] = biological target: lectin SNA1 from Sambucus nigra (Sambucus nigra) (UniProt Q41358)
[2] = biological target: lectin MAA from Maackia amurensis (Maackia amurensis) (UniProt P0DKL3); assay: solid-phase competition; fetuin against SVH1C for MAA
[3] = biological target: lectin MAA from Maackia amurensis (Maackia amurensis) (UniProt P0DKL3); assay: solid-phase competition; fetuin against 100 pmoles of SVH1C on streptavidin for peroxidase-conjugated MAA
[4] = biological target: T1, lectin MAA from Maackia amurensis …; assay: solid-phase assay, peptide titrated into wells containing bound lectin
[5] = biological target: lectin SNA1 from Sambucus nigra (Sambucus nigra), Q41358; assay: as above
Chain of lectin SNA1 from Sambucus nigra (Sambucus nigra), Q41358 (Q41358 29-289 limits assumed, chain 1 of 2): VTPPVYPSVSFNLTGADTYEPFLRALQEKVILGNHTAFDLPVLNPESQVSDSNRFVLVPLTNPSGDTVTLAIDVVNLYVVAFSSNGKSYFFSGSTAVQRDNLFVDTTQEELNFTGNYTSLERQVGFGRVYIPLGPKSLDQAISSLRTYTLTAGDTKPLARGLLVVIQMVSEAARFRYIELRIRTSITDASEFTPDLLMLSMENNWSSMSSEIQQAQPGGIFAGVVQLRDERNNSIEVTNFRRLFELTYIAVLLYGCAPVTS
Chain of lectin SNA1 from Sambucus nigra (Sambucus nigra), Q41358 (Q41358 309-570 limits assumed, chain 2 of 2): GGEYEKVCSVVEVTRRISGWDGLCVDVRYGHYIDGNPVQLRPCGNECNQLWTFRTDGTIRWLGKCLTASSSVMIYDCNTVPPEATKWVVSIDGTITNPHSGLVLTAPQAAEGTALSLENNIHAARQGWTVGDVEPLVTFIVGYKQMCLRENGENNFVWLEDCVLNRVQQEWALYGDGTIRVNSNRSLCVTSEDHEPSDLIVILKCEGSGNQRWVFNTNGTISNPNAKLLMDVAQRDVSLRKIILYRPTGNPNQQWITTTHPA

Chain of lectin SNA1 from Sambucus nigra (Sambucus nigra) (Q41358 29-289 limits assumed, chain 1 of 2): as the sequence (Q41358 29-289 limits assumed, chain 1 of 2) above
Chain of lectin SNA1 from Sambucus nigra (Sambucus nigra) (Q41358 309-570 limits assumed, chain 2 of 2): as the sequence (Q41358 309-570 limits assumed, chain 2 of 2) above

| Molecule | amount of fetuin giving essentially complete inhibition (pmoles of fetuin per well) [1] | percent inhibition at 100 pmoles fetuin per well [1] | percent inhibition at a 5-fold molar excess of fetuin over peptide [2] | amount of fetuin giving essentially complete inhibition (pmoles of fetuin per well) [3] | percent inhibition at 100 pmoles fetuin per well [3] | amount of peptide at saturation [4] | amount of peptide at saturation [5] |
| --- | --- | --- | --- | --- | --- | --- | --- |
| fetuin (from UniProt P12763 19-359) | 500 | 50% | 90% | 500 | 50% | – | – |
| B1 | – | – | – | – | – | 100 pmol | 100 pmol |
